Source: the supplement of paper PMC10567573

B1: FAM107A (parent)
chain: LQRVLEHRRRNQLIKKKKEELEAK
B2: SERPINB5 (parent)
chain: FPESETKECPFRVNKVCGAACSSK

Variants of: B1
Test: protein stability index of a GFP-peptide fusion (GPS, HEK-293T) (PSI 1-6); higher = more stable
Conditions: c terminus: a fixed tail appended
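Also: lentivirally expressed fusions sorted by FACS into six bins by GFP to DsRed ratio, PSI derived from sequencing read proportions per bin multiplied by bin number.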

Protein stability index, by site and new letter:
E22: Y 3.26 | P 2.77 | R 2.26 | H 2.33 | D 2.62 | T 3.51 | Q 3.59 | C 2.54 | M 2.83 | V 2.88 | S 2.96 | G 3.33 | N 2.82 | I 2.58 | K 4.21 | A 3.44 | L 3.08 | F 2.59 | W 2.75
K24: P 3.44 | D 3.89 | C 4.22 | L 3.04 | Y 2.62 | V 3.91 | E 4.35 | H 3.33 | A 3.62 | M 3.3 | I 3.57 | N 3.77 | W 2.88 | G 3.63 | F 3.75 | R 2.61 | Q 3.9 | T 3.97 | S 3.97
A23: E 4.14 | G 3.7 | T 3.11 | I 2.75 | S 3.63 | Q 3.87 | H 2.76 | R 3.48 | C 2.98 | K 2.86 | D 3.75 | W 4.26 | N 3.56 | Y 3.48 | M 3.39 | L 3.99 | V 3.03

Variants of: B2
Test: as above
Conditions: c terminus: a fixed tail appended

Protein stability index: each site, then its substitutions
S4: A 2.46 | R 2.76 | N 3.17 | D 4.14 | L 2.35 | G 2.25 | M 2.48 | W 2.03 | E 4.53 | P 3.49 | H 2.62 | V 3.08 | Y 2.9 | F 2.54 | Q 3.83 | I 2.72 | K 3.78 | T 3.34 | C 3.16
K7: V 2.53 | E 2.78 | F 1.89 | W 1.34 | C 3.21 | N 3.05 | G 2.52 | T 3.1 | I 2.55 | P 2.76 | R 2.88 | L 2.5 | D 3.22 | Y 1.97 | S 2.69 | H 3.36 | M 2.5 | Q 2.86 | A 2.43
T6: R 2.63 | G 2.09 | C 2.38 | L 2.1 | N 2.2 | Y 2.28 | M 2.63 | P 2.91 | S 2.36 | K 2.28 | V 3.18 | D 2.47 | H 2.56 | F 2.23 | E 3.47 | I 2.82 | W 2.65 | Q 2.95 | A 2.68
E5: Y 1.87 | C 1.72 | S 1.97 | D 1.92 | K 1.67 | I 1.8 | N 1.89 | Q 1.4 | V 2.52 | P 3.05 | L 1.78 | G 1.68 | F 1.6 | M 2.35 | T 2.11 | H 1.4 | A 1.88 | R 1.9
R12: Y 3.43 | C 4.62 | A 3.76 | T 3.84 | H 3.83 | D 4.86 | K 3.57 | F 3.56 | M 2.86 | G 4.11 | E 4.59 | P 4.75 | L 2.68 | S 3.95 | W 2.87 | N 3.66 | Q 3.36 | I 2.57 | V 2.43
C9: K 4.37 | L 3.6 | R 4.34 | D 3.87 | T 2.64 | V 4.4 | Q 4.03 | S 2.15 | Y 2.92 | A 4.49 | F 1.81 | M 3.81 | H 1.83 | G 2.82 | P 4.51 | E 4.84 | I 4.39 | W 2.07 | N 3
V13: S 3.66 | E 4.17 | D 4.31 | Y 2.03 | Q 4.03 | W 2.19 | L 3.19 | A 3.14 | C 3.09 | F 2.59 | H 4.26 | K 3.93 | P 3.02 | N 3.71 | R 3.59 | I 2.6 | M 3.1 | G 3.81 | T 3.54
P2: M 3.77 | W 3.64 | G 3.59 | I 2.07 | R 4.19 | Q 3.73 | D 4.73 | T 2.26 | S 3.66 | E 4.59 | A 2.02 | V 2.13 | Y 3.67 | N 3.63 | C 2.31 | F 4.09 | H 2.19 | K 4.63 | L 3.57
F1: W 3.85 | L 4.93 | P 4.52 | T 2.73 | K 4.89 | Q 4.5 | H 4.54 | Y 3.41 | I 4.67 | D 5.41 | N 4.61 | A 4.46 | G 4.7 | C 4.63 | R 4.65 | M 4.85 | V 4.5 | S 5.08 | E 5.05
P10: T 3.67 | F 2.55 | V 3.05 | C 3.05 | H 3.62 | S 3.96 | A 2.95 | L 2.14 | E 4.31 | G 4.1 | K 3.75 | R 3.63 | M 3.41 | D 4.78 | Y 2.3 | Q 3.58 | I 2.53 | N 4.02
E3: V 1.99 | G 1.88 | F 1.75 | S 1.47 | C 2.4 | W 2.29 | R 1.71 | K 2.09 | Q 1.75 | I 1.86 | H 1.55 | Y 1.53 | P 2.15 | T 1.43 | A 1.42 | L 1.43 | M 1.45 | N 2.4 | D 2.42
N14: K 2.07 | M 2.98 | T 2.5 | S 2.45 | C 2.69 | Q 3.29 | F 2.15 | Y 2.19 | H 3.27 | A 2.2 | L 2.35 | D 3.17 | R 2.17 | P 2.47 | E 3.29 | W 2.4 | G 2.02 | V 2.08 | I 1.96
E8: R 1.82 | P 2.29 | M 1.86 | G 1.9 | C 2.23 | A 2.25 | F 1.97 | D 2.16 | S 2.14 | Y 1.93 | Q 1.98 | I 2.13 | L 2.33 | K 3.04 | V 2.59 | W 1.66 | N 2.17 | H 2.14 | T 2.6
F11: I 4.74 | D 5.06 | T 4.45 | K 5.11 | P 4.96 | N 5.12 | Q 5.04 | V 4.25 | A 4.43 | G 2.87 | E 4.43 | Y 2.99 | W 2.16 | H 5.17 | R 4.67 | S 5.28 | C 3.71 | M 4.48 | L 4.31
K15: R 2.76 | I 2.12 | M 2.38 | F 2.12 | D 3.01 | A 3.17 | G 2.22 | L 2.61 | C 3.04 | S 2.32 | N 2.24 | P 2.58 | H 4.17 | E 2.83 | Q 2.52
